Experimental data from patent US20240218057A1 (ROCKEFELLER UNIVERSITY, published 2024).
Positions count from the first letter of the chain named.

B1: C1018 (antibody, V domains shown)
VH: QVQLVESGGGVVQPGRSLRLLCAASGFTFNTHGMHWVRQAPGKGLEWVAVIWFDGSNKYYADSVKGRFTISRDNSTNTLYLQMNSLRAEDTAVYYCARVYGGLPYYYAIDVWGQGTTVTVSS
VL: QSVLTQPPSVSGAPGQRVTISCAGSSSNIGAGYGVHWSQQLPGRPPKLLIYGDSNRPSGVPDRFSGSNSGTSASLAITGLQAEDEAVYYCQSYDRSLRAWVFGGGTKLSVL
B2: C912 (antibody, V domains shown)
VH: QVQLVESGGGVVQPGRSLRLSCAASGFSFSTYTMHWVRQTPDKGLEWVAVISDDGKNKYYADSMKGRFTISRDNSKNTLYLQMSSLRPEDTAVYYCARDLENVMIEVALESWGQGTLVTVSS
VL: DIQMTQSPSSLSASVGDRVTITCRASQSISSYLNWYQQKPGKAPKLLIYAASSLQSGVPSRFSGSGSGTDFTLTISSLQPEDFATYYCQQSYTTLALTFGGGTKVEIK
B3: C911 (antibody, V domains shown)
VH: QVQLVESGGGVVQPGGSLRLSCAASAFTFSSYAMHWIRQSPGKGLEWVAVISSDGSSKFYADSVKGRFTISRDNSKNTLYLQMNSLSAEDTAVYYCARDLENVLIEVALQDWGQGTLVTVSS
VL: DIQMTQSPSSLSASVGDRVTITCRASQSINSYLNWYQQKPGKAPKLLIYAASSLHSGVPSRFSGSGSGTDFTLTISSLQPEDFATYYCQQSYTTLALTFGGGTKVEIK
B4: C1010 (antibody, V domains shown)
VH: QVQLVESGGGVVQPGRSLRLSCAASGFTFSSYAMHWVRQAPGKGLEWVAVISYDGSNKYYADSVKGRFTISRDNSKNTLYLQMNSLRAEDTAVYYCAKKGQPYCGGDCYFYYFDYWGQGTLVTVSS
VL: DIQMTQSPSSLSASLGDRVTITCQASQDISNYLNWYQQKPGKAPKLLIYDASNLETGVPSRFSGSGSGTDFTFTISSLQPEDIATYYCQQYDNLPPITFGQGTRLEIK
B5: C1011 (antibody, V domains shown)
VH: QVQLVESGGGVVQPGRSLRLSCAVSGFTFSHYAMHWVRQAPGKGLEWVAVISYDGADKYYADSVRGRFTIARDNSKNTLFLQMSSLRPEDTAVYYCAKKGQPYCGGDCHFYYLDYWGQGTLVTVSS
VL: B4 VL with L15V, Y32H, P80A
B6: C1012 (antibody, V domains shown)
VH: QVQLVQSGAEVKKPGSSVKVSCKASGGTVNNYAINWVRQAPGQGLEWMGGIVPIFGTPNYAQKFQGRVTITADESTSTAYMELSSLRSEDTAVYYCAKVSLTLPIAAAPRFWFDSWGQGTLVTVSS
VL: EIVMTQSPATLSVSPGERATLSCRASQSVSSHLAWYQQKPGQAPRLLIYGASTRATGIPARFSGSGSGTEFTLTISSLQSEDFAVYYCQQYHNWPPALTFGGGTKVEIK
B7: C1013 (antibody, V domains shown)
VH: QVQLVQSGVEVKKPGSSVKVSCKASGGTFTDYAFSWVRQAPGQGLEWMGGIVPIFATPDYAEKFRGRVTITADESTSTAYMELSTLKSEDTAVYYCARASLTLPIRAAPRFWFDAWGQGTLVTVSS
VL: B6 VL with S28G, S31T, N93K
B8: C1022 (antibody, V domains shown)
VH: QVQLVQSGAEVKTPGASVKVSCQASGDTFTSQYLHWVRQAPGQGLEWMGIINPTAGSTTYAQKFQGRVTMTRDTSTSTVYMELRSLRSEDMAVYYCARGGFIPMVRGFIDHWGQGTLVTVSS
VL: QSALTQPASVSGSPGQSITISCTGTSSDVGGYNYVSWYQQHPGKAPKLMIYDVSNRPSGVSTRFSGSKSGNTASLTISGLQAEDEADYYCSSPTSSNTHVFGTGTKVTVL
B9: C909 (antibody, V domains shown)
VH: QVQLVQSGAEVKKPGASVKVSCRASGYTFPNYDLNWVRQATGQGLEWMGWMNPNSGNTGYAQKFQGRITMTRITSISTAYMELSSLRSEDTAVYYCARGRANWNSNFLLDSWGQGTLVTVSS
VL: QSALTQPASVSGSPGQSITISCTGTSSDVGGYNLVSWYQQYPGNVPKLMIYEDAKRPSGVSNRFSGSKSANTASLTISGLQAEDEADYYCCSYAGSSTRYVFGTGTKVTVL
B10: C1014 (antibody, V domains shown)
VH: QVQLQESGPGLVRPSQTLSLTCTVSGGSIGSGAYWSWIRQHPAKGLEWIGYVYYSGSTFYNPSLETRVSISVDISKDQFSLELTSVTVADTAVYYCAREKIEVVSIEMRPHYYGIDVWGQGTTVTVSS
VL: EIVMTQSPATLSVSPGERATLSCRASQSISSNLAWYQQKPGQPPRLLIYGASTRATGIPARFSGSGSGTEFTLTISSLQSEDIAVYYCQHYNNWPPWTFGQGTKVDIK
B11: C1023 (antibody, V domains shown)
VH: QVQLVQSGAEMKKPGASVKISCKASGDTFTTNYFHWVRQAPGQGLEWMGIINPSAGSTTYAQRFQGRVTMTGDSSTNTVYLELRSLRSEDTAMYFCAKGSYIPAMRSSFDPWGQGTLVTVSS
VL: EIVLTQSPGTLSLSPGERATLSCRASQSVSHRYLAWYQQKPGQAPRLLIDGASNRATGIPDRFSGSGSGTDFTLTISRLEPEDFGVYYCQQYGSSPPFTFGQGTKLEIK
B12: C903 (antibody, V domains shown)
VH: EVQLVESGGGLIQPGGSLRLSCAASGFIVSRNYMSWVRQAPGKGLEWVSIIYSGGSTFYADSVKGRFTISRDNSKNTVYLQMNSLRAEDTAVYYCARDYGDFYFDYWGQGTLVTVSS
VL: EIVLTQSPGTLSLSPGERATLSCRASQSVSSSYLAWYQQKPGQAPRLLIFDVSSRATGIPDRFSGSGSGTDFTLTISRLEPEDFAVYYCQQYGSSPRTFGQGTKVEIK
B13: C908 (antibody, V domains shown)
VH: EVQLVQSGAEVKKPGESLKISCKASGYSFTIYWIGWVRQMPGKGLEWMGIIYPGESETRYSPSFQGQVTISADKSISTAYLQWRSLKASDTAMYYCARGGPPGGVKLELTDYWGQGTLVTVSS
VL: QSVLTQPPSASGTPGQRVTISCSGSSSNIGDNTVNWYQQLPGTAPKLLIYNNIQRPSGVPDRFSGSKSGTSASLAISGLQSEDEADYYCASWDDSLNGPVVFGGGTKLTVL
B14: C1021 (antibody, V domains shown)
VH: QVQLVQSGAELKKPGASVKVSCKASGYTFSTYYIHWVRQAPGQGLEWMGIINPEAGSTSYAQKFQGRVTMTTDTSTSTVYMELISLRSQDTAIYYCARDAVGVPAINSLEYWGQGTLVTVSS
VL: EIVLTQSPATLSLSPGERATLSCRASQSISSYLAWYQQKPGQAPRLLIYDASNRATDISARFSGSGSGTDFTLTISSLEPEDFAVYYCQHRSNWPPSFTFGGGTKVEIK
B15: C1020 (antibody, V domains shown)
VH: QVQLVQSGAEVKKPGASVKISCKASGYSFSNYYIHWVRQAPGQGLEWMGIINPSGNSISYAQKFQGRVTMTGDTSTSTVYMELSSLRSEDTAVYYCARSVFPVPAAGGCDYWGQGTLVTVSS
VL: DIQMTQSPSSLSASVGDRVTITCRASQSITTSLNWYQQKPGKAPKLLIYSASTLESGVPSRFSGSGSGTDFTLTISSLQPEDFATYYCQQTYRAPPYTFGQGTKLEIK
B16: C910 (antibody, V domains shown)
VH: QVQLVQSGAAVKKPGASVKVSCKASGYTFTSYDINWVRQAPGQGLEWMGWMNPNSGNTGFAQRFQGRATLSRDTSITTAYMELTTLRSEDTAVYYCARGRANYNSKFLLDNWGQGTLVTVSS
VL: QSALTQPASVSGSPGQSITISCTGTSSDVGSYNLVSWYQQHPGTAPKLMIYEGSKRPSGVSDRFSGYKSGNTASLTISGLQADDEADYYCCSFAGSTTRYVFGTGTRVTVL
B17: C1019 (antibody, V domains shown)
VH: QVQLVESGGGVVQPGTPLRLSCAASGFTFSSYAMHWVRQAPGKGLEWVAMISYDGGNKYYADSVKGRFTISRDNSKNTLFLQMNSLRGEDTAVYYCARSFSIRIGHKDNWGQGTLVTVSS
VL: NFMLTQPHSVSESPGKTVTISCTGSSGSIANNYVQWYQQRPGSAPTPVIYEDDQRPSGVPDRFSGSIDSSSNSASLSISGLKTEDEADYYCQSYDSTNFWVFGGGTKLTVL
B18: C1024 (antibody, V domains shown)
VH: QVQLVESGGGVVQPGRSLRLSCAASGFTFSDYAMHWVRQAPGKGLEWVAMISYDGNSQYYADSVKGRFTISRDNSKNTLYLQMNILRPEDTAVYYCARTFSIRIGHHDYWGQGTLVTVSS
VL: B17 VL with N31S, Q35H, P47T, Y50F, D53N, S77T, T97S, N98S
B19: C907 (antibody, V domains shown)
VH: QVQLQESGPGLVKPSETLSLTCTVSGGSITSYYWTWIRQSPGKGLEWIGYIYYIGSTNYNPSLKSRLTISLATSKNQFSLRLNSVTAADTAVYYCASYYNDTSGYSYGLDVWGQGTTVTVSS
VL: DIQMTQSPSSLSAFVGDRVTITCRAGQSISSYLHWYQQKPGKAPKLLIYATSTLQSGVPSRFSGRGSGTDFTLTISGLQPEDFATYYCQQSYSTPQTFGQGTKVEIK
B20: C905 (antibody, V domains shown)
VH: QVQLQESGPGLVTPSQTLSLTCSVSGGSIHSRDFYWGWIRQHPGKGLEWIGHIYYTGNTYYNPSLKSRVTISADTSKNQFSLKLSSVTAADTAVYYCARATVVITLHWFDPWGQGTLVTVSS
VL: NFMLTQPHSVSESPGKTVTISCTGSGGSIASNYVQWYQQRPGSAPTTVIYEDNERPSGVPDRFSGSIDSSSNSASLTISGVKTEDEADYFCQSYDVGNPVIFGGGTKLTVL
B21: C904 (antibody, V domains shown)
VH: QVQLQQWGAGLLKPSETLSLTCAVNGGSLSLYYWSWIRQSPGKGLEWIGEINHFGGSDYKPSLKSRVSISVDTSTNQFSLKLSSVTAADTAVYYCARKPLLHSNISPGAFDIWGQGTMVTVSS
VL: EIVLTQSPGTLSLSPGERATLSCRASQSVAGSYLAWYQQKPGQAPRLLIYGASSRATGVPDRISGSGSGTDFTLTISRLEPEDFAVYYCQQYTNTPRTFGGGTKVEI
B22: C906 (antibody, V domains shown)
VH: EVQLVESGGGLIKPGRSLRLSCTASGFTFGDYAMTWFRQAPGKGLEWVGFIRSKAYGGTTGYAASVKYRFTISRDDSKSIVYLQMDSLKTEDTAVYYCTRWDGWSQHDYWGQGTLVTVSS
VL: DIVMTQSPLSLSVTPGEPASISCRSSQSLLHSNGINYFDWYLQKPGQSPQLLIYLGSNRASGVPDRFSGSGSGTDFTLKISRVEAEDVGVYYCMQVLQIPYTFGQGTKLEI
B23: C1016 (antibody, V domains shown)
VH: QVQLQESGPGLVKPSGTLSLTCAVSGGPISSNHWWSWVRQPPGKGLEWIGEVYRNGNTNYHPSLKSRVTMSIDNSKNQFSLSLTSVTAADTAVYYCARGGDLAMGPEYLDFWGQGTLVTVSS
VL: QSALTQPASVSGSPGQSITISCTGTSSDVGANNYVSWYQQHPGKAPKLMIYDVINRPSGVSDRFSGSKSGNTASLTISGLQAEDEADYYCSSFSTSSTLLFGGGTKLTVL

Molecular target: T1, SARS-COV-2 RBD (SARS-COV-2, UniProt P0DTC2 319-539)
T1 construct: also called WT RBD
Experiment: ELISA, RBD coated on plate

Binder | EC50 [ng/mL]
B1 | 3.09
B2 | 2.45
B3 | 2.36
B4 | 2.45
B5 | 1.49
B6 | 3.29
B7 | 8.92
B8 | 1.66
B9 | 3.24
B10 | 2.95
B11 | 1.13
B12 | 2.54
B13 | 1.27
B14 | 2.53
B15 | 2.06
B16 | 2.47
B17 | 2.8
B18 | 2.37
B19 | 3.71
B20 | 3.06
B21 | 3.31
B22 | 1.07
B23 | 2.16
